From paper PMC12102759

B1: NOTCH4 peptide 1606-1621 (Neurogenic locus notch homolog protein 4), 16-mer library wild type / NSP9 (ORF1ab Nsp9, residues 4141-4253) (parent)
chain 1: QGAWLGAPEPWEPLLD
chain 2: NNELSPVALRQMSCAAGTTQTACTDDNALAYYNTTKGGRFVLALLSDLQDLKWARFPKSDGTGTIYTELEPPCRFVTDTPKGPKVKYLYFIKGLNNLNRGMVLGSLAATVRLQ
B2: NOTCH4 peptide 1604-1619 (Neurogenic locus notch homolog protein 4), 16-mer library wild type / NSP9 (ORF1ab Nsp9, residues 4141-4253) (parent)
chain 1: TFQGAWLGAPEPWEPL
chain 2: B1 chain 2
B3: ICA1L peptide 453-468 (Islet cell autoantigen 1-like protein), 16-mer library wild type / NSP16 (ORF1ab Nsp16, residues 6799-7088) (parent)
chain 1: MSAWFNLFADLDPLSN
chain 2: SSQAWQPGVAMPNLYKMQRMLLEKCDLQNYGDSATLPKGIMMNVAKYTQLCQYLNTLTLAVPYNMRVIHFGAGSDKGVAPGTAVLRQWLPTGTLLVDSDLNDFVSDADSTLIGDCATVHTANKWDLIISDMYDPKTKNVTKENDSKEGFFTYICGFIQQKLALGGSVAIKITEHSWNADLYKLMGHFAWWTAFVTNVNASSSEAFLIGCNYLGKPREQIDGYVMHANYIFWRNTNPIQLSSYSLFDMSKFPLKLRGTAVMSLKEGQINDMILSLLSKGRLIIRENNRVVI

Variants of: B1
Settings: with NSP9 (ORF1ab Nsp9, residues 4141-4253); bait immobilised on MaxiSorp plates (10 µg), library pre-cleared on GST, 2 h binding at 4 °C, five washes; one round per day, days 1-4; value from days 2 and 3; keep out of graded; scale: average fractional NGS count over selection days 2 and 3

| Variant | screen value |
| --- | --- |
| chain 1 Q1G | 5.8e-05 |
| chain 1 Q1V | 3.52e-05 |
| chain 1 G2W | 0 |
| chain 1 G2T | 0 |
| chain 1 G2A | 0 |
| chain 1 G2H | 0 |
| chain 1 G2Y | 0 |
| chain 1 G2L | 0 |
| chain 1 G2R | 1.21e-05 |
| chain 1 E12R | 8.31e-05 |
| chain 1 L15W | 5.05e-05 |
| chain 1 L15G | 6.9e-05 |
| chain 1 W11K | 3.16e-05 |
| chain 1 W11R | 3.62e-05 |
| chain 1 P8K | 0 |

Variants of: B2
Settings: with NSP9 (ORF1ab Nsp9, residues 4141-4253); bait immobilised on MaxiSorp plates (10 µg), library pre-cleared on GST, 2 h binding at 4 °C, five washes; one round per day, days 1-4; value from days 2 and 3; keep out of graded; scale: average fractional NGS count over selection days 2 and 3

| Variant | screen value |
| --- | --- |
| chain 1 L16G | 0 |
| chain 1 L16V | 0 |
| chain 1 E11Y | 0 |
| chain 1 E11L | 0 |
| chain 1 E11N | 0 |
| chain 1 E11H | 0 |
| chain 1 E11S | 0 |
| chain 1 A5L | 5.68e-05 |
| chain 1 A5G | 0 |
| chain 1 A5V | 0.000292 |
| chain 1 A5K | 0 |
| chain 1 A5F | 4.11e-05 |
| chain 1 A5S | 0 |
| chain 1 G4R | 0 |
| chain 1 G4Y | 0 |
| chain 1 G4D | 0 |
| chain 1 G4V | 0 |
| chain 1 P12F | 1.76e-05 |
| chain 1 P12T | 0 |
| chain 1 P12V | 0.000373 |
| chain 1 P12Q | 3.5e-05 |
| chain 1 P10I | 0 |
| chain 1 P10L | 0 |
| chain 1 P10E | 4.5e-05 |
| chain 1 P10W | 0.00035 |

| Variant | screen value |
| --- | --- |
| chain 1 P10A | 0 |
| chain 1 P10G | 0 |
| chain 1 W13S | 2.43e-05 |
| chain 1 W13T | 4.47e-05 |
| chain 1 W13F | 0 |
| chain 1 W13I | 3.37e-05 |
| chain 1 Q3L | 0 |
| chain 1 Q3E | 2.09e-05 |
| chain 1 F2A | 0.000265 |
| chain 1 F2E | 3.22e-05 |
| chain 1 F2D | 6.3e-05 |
| chain 1 F2P | 6.51e-05 |
| chain 1 E14G | 0 |
| chain 1 E14Q | 0 |
| chain 1 E14H | 0 |
| chain 1 A9M | 0 |
| chain 1 A9W | 4.99e-05 |
| chain 1 A9P | 0 |
| chain 1 G8R | 0 |
| chain 1 G8V | 0 |
| chain 1 G8E | 0 |
| chain 1 G8M | 0 |
| chain 1 P15S | 0 |
| chain 1 P15Y | 0 |
| chain 1 W6N | 0 |

Variants of: B3
Settings: with NSP16 (ORF1ab Nsp16, residues 6799-7088); bait immobilised on MaxiSorp plates (10 µg), library pre-cleared on GST, 2 h binding at 4 °C, five washes; one round per day, days 1-4; value from days 2 and 3; keep out of graded; scale: average fractional NGS count over selection days 2 and 3

| Variant | screen value |
| --- | --- |
| chain 1 F5L | 0 |
| chain 1 F5W | 0 |
| chain 1 P13V | 0 |
| chain 1 S15R | 0 |
| chain 1 A3D | 4.01e-05 |
| chain 1 A3P | 0 |
| chain 1 A3L | 0 |
| chain 1 A9N | 0 |
| chain 1 L11W | 0 |
| chain 1 L11I | 1.35e-05 |
| chain 1 L11P | 0 |
| chain 1 F8Y | 0 |
| chain 1 W4A | 0 |
| chain 1 S2D | 0.00136 |
| chain 1 S2L | 0 |
| chain 1 L7S | 0 |
| chain 1 D10Y | 6.76e-05 |
| chain 1 N6K | 0 |
| chain 1 N6R | 0 |
